{"source": "patent US6534629B1", "about": "“Nematode-extracted serine protease inhibitors and anticoagulant proteins” (priority 1994, dated 2003)", "molecules": {"B1": {"name": "Pro-AcaNAP5: AcaNAP5 with four additional N-terminal amino acids, SEQ. ID. NO. 7, made in COS cells (protein)", "chain": "RTVRKAYPECGENEWLDDCGTQKPCEAKCNEEPPEEEDPICRSRGCLLPPACVCKDGFYRDTVIGDCVREEECDQHEIIHV"}, "B2": {"name": "AcaNAPc2: NAP of Ancylostoma caninum isolated by phage display, SEQ. ID. NO. 59; fVIIa/TF inhibitor (protein)", "chain": "KATMQCGENEKYDSCGSKECDKKCKYDGVEEEDDEEPNVPCLVRVCHQDCVCEEGFYRNKDDKCVSAEDCELDNMDFIYPGTRN"}, "B3": {"name": "AceNAP4: NAP of Ancylostoma ceylanicum with two NAP domains, SEQ. ID. NO. 62 (protein)", "chain": "KPNNVMTNACGLNEYFAECGNMKECEHRCNEEENEERDEERITACLIRVCFRPGACVCKDGFYRNRTGSCVEEDDCEYENMEFITFAPEVPICGSNERYSDCGNDKQCERKCNEDDYEKGDEACRSHVCERPGACVCEDGFYRNKKGSCVESDDCEYDNMDFITFAPETSR"}, "B4": {"name": "AcaNAP42: NAP of Ancylostoma caninum, SEQ. ID. NO. 47; AcaNAP31, 42 and 46 encode identical proteins (protein)", "chain": "KSLWDQKCGENERLDCGNQKDCERKCDDKRSEEEIMQACLTRQCLPPVCVCEDGFYRNDNDQCVDEEECNMEFITFAP"}, "B5": {"name": "AcaNAP6: NAP of Ancylostoma caninum, SEQ. ID. NO. 6; recombinant, made in Pichia pastoris (protein)", "chain": "KAYPECGENEWLDVCGTKKPCEAKCSEEEEEDPICRSFSCPGPAACVCEDGFYRDTVIGDCVKEEECDQHEIIHV"}, "B6": {"name": "AcaNAPc2P: AcaNAPc2 with an additional proline residue at the C-terminus (protein)", "chain": "KATMQCGENEKYDSCGSKECDKKCKYDGVEEEDDEEPNVPCLVRVCHQDCVCEEGFYRNKDDKCVSAEDCELDNMDFIYPGTRNP"}}, "key": {"[1]": {"system": "FeCl3-induced platelet-dependent arterial thrombosis", "experiment": "Rat model of FeCl3-induced platelet-dependent arterial thrombosis, intravenous administration", "type": "in vivo", "conditions": "dose that prevents complete thrombotic occlusion in 50% of animals", "method": "The antithrombotic (prevention of thrombus formation) properties of NAP were evaluated using the established experimental rat model of acute vascular thrombosis.\nThe rat FeCl3 model is a well characterized model of platelet dependent, arterial thrombosis which has been used to evaluate potential antithrombotic compounds. Kurz, K. D., Main, B. W., and Sandusky, G. E., Thromb. Res., 60: 269-280 (1990). In this model a platelet-rich, occlusive thrombus is formed in a segment of the rat carotid artery treated locally with a fresh solution of FeCl3 absorbed to a piece of filter paper. The FeCl3 is thought to diffuse into the treated segment of artery and cause de-endothelialization of the affected vessel surface. […] The net result is occlusive thrombus formation. The effect of a test compound on the incidence of occlusive thrombus formation following application of FeCl3 is monitored by ultrasonic flowtometry and is used as the primary end point. […]\nFollowing surgery the animals were randomized in either a control (saline) or treatment (recombinant AcaNAP5) group. […] Blood pressure, blood flow, heart rate, and respiration were monitored for 60 minutes. The incidence of occlusion (defined as the attainment of zero blood flow) was recorded as the primary end point."}, "[2]": {"system": "normal citrated human plasma", "experiment": "Prothrombin time (PT) assay", "type": "biochemical", "conditions": "for Doubling Concentration (nM) in the PT: concentration that doubled the control clotting time (12.1 seconds) of normal human plasma; for coagulation time of human plasma (Prothrombin Time Assay), in words: P. pastoris culture supernatant / growth media", "method": "(§1) The ex vivo anticoagulant effects of NAPs of the present invention in human plasma were evaluated by measuring the prolongation of the activated partial thromboplastin time (aPTT) and prothrombin time (PT) over a broad concentration range of each inhibitor.\n(§2) Fresh frozen pooled normal citrated human plasma was obtained from George King Biomedical, Overland Park, Kans. Respective measurements of aPTT and PT were made using the Coag-A-Mate RA4 automated coagulometer (General Diagnostics, Organon Technica, Oklahoma City, Okla.) using the Automated aPTT Platelin® reagent (Organon Technica, Durham, N.C.) and Simplastin® Excel (Organon Technica, Durham, N.C.) respectively, as initiators of clotting according to the manufacturer's instructions.\n(§3) The assays were conducted by making a series of dilutions of each tested NAP in rapidly thawed plasma followed by adding 200 microliters or 100 microliters of the above referenced reagents to the wells of the assay carousel for the aPTT or PT measurements, respectively. Alternatively, the NAPs were serially diluted into HBSA and 10 μl of each dilution were added to 100 μl of normal human plasma in the wells of the Coag-A-Mate assay carousel, followed by addition of reagent.\nConcentrations of NAP were plotted against clotting time, and a doubling time concentration was calculated, i.e., a specified concentration of NAP that doubled the control clotting time of either the PT or the aPTT. The control clotting times (absence of NAP) in the PT and APTT were 12.1 seconds and 28.5 seconds, respectively."}, "[3]": {"system": "normal citrated human plasma", "experiment": "Activated partial thromboplastin time (aPTT) assay", "type": "biochemical", "conditions": "concentration that doubled the control clotting time (28.5 seconds) of normal human plasma", "method": "as §1, §2, §3\nConcentrations of NAP were plotted against clotting time, and a doubling time concentration was calculated, i.e., a specified concentration of NAP that doubled the control clotting time of either the PT or the aPTT."}, "[4]": {"molecular_target": "human rFVIIa/rTF/PLV complex", "experiment": "Factor VIIa/Tissue factor amidolytic assay", "type": "biochemical", "method": "Lyophilized, purified, recombinant human factor VIIa was obtained from BiosPacific, Inc. (Emeryville, Calif.), and reconstituted in HBS (10 mM HEPES, pH 7.5, 150 mM sodium chloride) prior to use. Purified human Factor X was obtained from Enzyme Research Laboratories, Inc. (South Bend, Ind.) and Factor Xa (free FXa) was activated and prepared from Factor X as described (Bock, P. E., Craig, P. A., Olson, S. T., and Singh, P. Arch. Biochem. Biophys. 273: 375-388 (1989)). Active site-blocked human Factor Xa (EGR-FXa), which had been irreversibly inactivated with L-Glutamyl-L-glycyl-L-arginyl chloromethylketone, was obtained from Haematologic Technologies, Inc. (Essex Junction, Vt.). Recombinant human tissue factor (rTF) was produced by a baculovirus-expression system, and purified to homogeneity by monoclonal antibody affinity chromatography (Corvas International, Inc., San Diego, Calif.).\nThe purified rTF apoprotein was incorporated into phospholipid vesicles (rTF/PLV), consisting of phosphotidyl choline (75%, w/v) and phosphotidyl serine (25%, w/v) in the presence of detergent, as described by Ruf et al. (Ruf, W., Miles, D. J., Rehemtulla, A., and Edgington, T. S. Methods in Enzymology 222: 209-224 (1993)). The phospholipids were purchased from Avanti Polar Lipids, (Alabaster, Ala.). The buffer used for all assays was HBSA, HBS containing 0.1% (w/v) bovine serum albumin. All reagents were obtained from Sigma Chemical Cb. (St. Louis, Mo.), unless otherwise indicated.\nrFVIIa/rTF amidolytic activity was determined using the chromogenic substrate S-2288 (H-D-isoleucyl-L-prolyl-L-arginine-p-nitroaniline), obtained from Kabi Pharmacia Hepar, Inc. (Franklin, Ohio). The substrate was reconstituted in deionized water prior to use. rFVIIa and rTF/PLV were combined in a polypropylene test tube, and allowed to form a complex for 10 min in HBSA, containing 3 mM CaCl2. […] Following an incubation of 30 min at ambient temperature, the triplicate reactions were initiated by adding 50 μL of S-2288.\nThe amidolytic activity of rFVIIa/rTF/PLV was measured as a linear increase in the absorbance at 405 nm over 10 min (velocity), using a Thermo Max® Kinetic Microplate Reader (Molecular Devices, Palo Alto, Calif.), under steady-state conditions, where less than 5% of the substrate was consumed. Ratios of inhibited pre-equilibrium, steady-state velocities (Vi), in the presence of NAP, to the uninhibited velocity in the presence of free fXa alone (Vo) were plotted against the corresponding concentrations of NAP."}, "[5]": {"system": "acute coronary artery thrombosis", "experiment": "Pig model of acute coronary artery thrombosis", "type": "in vivo", "conditions": "for Time of Occulsion: non-occluded vessels assigned 240 minutes", "excerpt": "The protocol used in these studies is a modification of a thrombosis model which has been reported previously (Lucchesi, B. R., et al., (1994), Brit. J. Pharmacol. 113: 1333-1343).\nAnimals were anesthetized and instrumented with arterial and venous catheters (left common carotid and external jugular, respectively). A thoracotomy was made in the 4th intercostal space and the heart was exposed. The left anterior descending (LAD) coronary artery was isolated from the overlying connective tissue and was instrumented with a Doppler flow probe and a 17 gauge ligature stenosis. An anodal electrode also was implanted inside the vessel.\nBaseline measurements were taken and the NAP or placebo to be tested was administered via the external jugular vein. Five minutes after administration, a direct current (300 μA, DC) was applied to the stimulating electrode to initiate intimal damage to the coronary endothelium and begin thrombus formation. Current continued for a period of 3 hours. Animals were observed until either 1 hour after the cessation of current or the death of the animal, whichever came first.\nThe incidence of occlusion in the animals receiving placebo was 8/8 (100%). Time to occlusion in placebo treated animals was 66.6±7.5 min. (mean±sem)."}, "[6]": {"conditions": "No FXa Addition, read-out: Ki* (pM) Amidolytic Assay, No FXa Addition"}}, "note": "Like-named read-outs stand apart in the source and are kept apart here. Marks after values point to notes of the source that are not given here.", "data": [{"molecule": "CC1CNc2c(cccc2S(=O)(=O)N[C@@H](CCCNC(=N)N)C(=O)N2CC[C@@H](C)C[C@@H]2C(=O)O)C1", "note": "(some centres unmarked) [Argatroban]", "values": [{"measurement": "ED50", "setting": "[1]; read-out: ED50", "result": 3.8, "unit": "mg/kg"}]}, {"molecule": "rTAP: recombinant Tick Anticoagulant Peptide, 60 amino acid factor Xa inhibitor from Ornithodoros moubata (YNRLCIKPRDWIDECDSNEGGERAYFRNGKGGCDSFWICPEDHTGADYYSSYRDCFNACI; UniProt P17726 1-60, looked up)", "values": [{"measurement": "ED50", "setting": "[1]", "result": 0.6, "unit": "mg/kg"}]}, {"molecule": "B1", "values": [{"measurement": "Doubling Concentration (nM) in the PT", "setting": "[2]", "result": 21.9, "unit": "nM"}, {"measurement": "Doubling Concentration (nM) in the aPTT", "setting": "[3]", "result": 31.0, "unit": "nM"}]}, {"molecule": "B2", "values": [{"measurement": "Doubling Concentration (nM) in the PT", "setting": "[2]", "result": "15 ± 1", "unit": "nM"}, {"measurement": "Ki", "setting": "[4]; [6]", "result": "> 1500", "unit": "pM"}]}, {"molecule": "B3", "values": [{"measurement": "Doubling Concentration (nM) in the PT", "setting": "[2]", "result": "40 ± 4", "unit": "nM"}, {"measurement": "Doubling Concentration (nM) in the aPTT", "setting": "[3]", "result": "115 ± 12", "unit": "nM"}]}, {"molecule": "B4", "values": [{"measurement": "coagulation time of human plasma (Prothrombin Time Assay), in words", "setting": "[2]", "result": "prolongation of the coagulation time of human plasma"}]}, {"molecule": "B5", "values": [{"measurement": "Doubling Concentration (nM) in the PT", "setting": "[2]", "result": "37 ± 3", "unit": "nM"}, {"measurement": "Ki", "setting": "[4]; [6]", "result": "> 1500", "unit": "pM"}, {"measurement": "Ki", "setting": "[4]; Plus EGR-FXa (2.5 nM), read-out: Ki* (pM) Amidolytic Assay, Plus EGR-FXa", "result": "> 1500", "unit": "pM"}, {"measurement": "Doubling Concentration (nM) in the aPTT", "setting": "[3]", "result": "62 ± 0", "unit": "nM"}]}, {"molecule": "B6", "values": [{"measurement": "coagulation time of human plasma (Prothrombin Time Assay), in words", "setting": "[2]", "result": "prolongation of the coagulation time of human plasma"}, {"measurement": "in vitro activity in inhibitory assays of rFVIIa/rTF activity, compared with AcaNAPc2", "setting": "[4]", "result": "substantially the same as AcaNAPc2"}, {"measurement": "Incidence of Occlusion", "setting": "[5]; 0.01 mg/kg i.v.", "result": "6/6"}, {"measurement": "Total Blood Loss", "setting": "[5]; 0.01 mg/kg i.v.", "result": "1.6 ± 0.3", "unit": "mL"}, {"measurement": "Time of Occulsion", "setting": "[5]; 0.01 mg/kg i.v.", "result": "105 ± 6.2", "unit": "min"}, {"measurement": "Incidence of Occlusion", "setting": "[5]; 0.03 mg/kg i.v.", "result": "4/6"}, {"measurement": "Total Blood Loss", "setting": "[5]; 0.03 mg/kg i.v.", "result": "4.9 ± 1.4", "unit": "mL"}, {"measurement": "bleeding, in words", "setting": "[5]; 0.03 mg/kg i.v.", "result": "did not produce significant elevations in bleeding"}, {"measurement": "time to occlusion, in words", "setting": "[5]; 0.03 mg/kg i.v.", "result": "significantly prolonged"}, {"measurement": "Time of Occulsion", "setting": "[5]; 0.03 mg/kg i.v.", "result": "159 ± 27", "unit": "min"}, {"measurement": "Incidence of Occlusion", "setting": "[5]; 0.10 mg/kg i.v.", "result": "2/6†"}, {"measurement": "Total Blood Loss", "setting": "[5]; 0.10 mg/kg i.v.", "result": "17.6 ± 7.9", "unit": "mL"}, {"measurement": "Time of Occulsion", "setting": "[5]; 0.10 mg/kg i.v.", "result": "215 ± 25", "unit": "min"}]}]}
